Tested on: peptide library, one residue held at a place counted from the S/T acceptor
Assay: relative phosphorylation of the sub-library (ratio to the mean residue at this position); higher = residue favoured
Procedure, shortened: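 Relative sub-library phosphorylation is a ratio to the mean residue at the same position. Purified recombinant kinases were incubated under kinase-specific conditions with biotinylated degenerate peptide sub-libraries, each fixing one residue at one position around a central Ser/Thr, using 50 μM peptide and 50 μM ATP spiked with γ-32P-ATP for 90 min. Spots captured on streptavidin membranes were phosphorimaged and quantified by densitometry.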

WNK1, construct: aa171-529, human, sequence (Q9H4A3 171-529, looked up): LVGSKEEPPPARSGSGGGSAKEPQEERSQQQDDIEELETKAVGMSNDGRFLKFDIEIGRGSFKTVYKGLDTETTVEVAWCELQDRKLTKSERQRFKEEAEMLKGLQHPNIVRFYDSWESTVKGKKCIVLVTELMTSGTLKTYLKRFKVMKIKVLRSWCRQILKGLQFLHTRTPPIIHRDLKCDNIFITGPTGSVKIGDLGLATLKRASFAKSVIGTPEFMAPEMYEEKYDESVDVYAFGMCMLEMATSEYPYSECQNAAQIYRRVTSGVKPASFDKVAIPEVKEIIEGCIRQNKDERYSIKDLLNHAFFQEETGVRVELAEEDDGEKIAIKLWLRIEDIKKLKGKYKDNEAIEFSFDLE
TBK1, construct: Full length, human, sequence (Q9UHD2 whole entry, looked up): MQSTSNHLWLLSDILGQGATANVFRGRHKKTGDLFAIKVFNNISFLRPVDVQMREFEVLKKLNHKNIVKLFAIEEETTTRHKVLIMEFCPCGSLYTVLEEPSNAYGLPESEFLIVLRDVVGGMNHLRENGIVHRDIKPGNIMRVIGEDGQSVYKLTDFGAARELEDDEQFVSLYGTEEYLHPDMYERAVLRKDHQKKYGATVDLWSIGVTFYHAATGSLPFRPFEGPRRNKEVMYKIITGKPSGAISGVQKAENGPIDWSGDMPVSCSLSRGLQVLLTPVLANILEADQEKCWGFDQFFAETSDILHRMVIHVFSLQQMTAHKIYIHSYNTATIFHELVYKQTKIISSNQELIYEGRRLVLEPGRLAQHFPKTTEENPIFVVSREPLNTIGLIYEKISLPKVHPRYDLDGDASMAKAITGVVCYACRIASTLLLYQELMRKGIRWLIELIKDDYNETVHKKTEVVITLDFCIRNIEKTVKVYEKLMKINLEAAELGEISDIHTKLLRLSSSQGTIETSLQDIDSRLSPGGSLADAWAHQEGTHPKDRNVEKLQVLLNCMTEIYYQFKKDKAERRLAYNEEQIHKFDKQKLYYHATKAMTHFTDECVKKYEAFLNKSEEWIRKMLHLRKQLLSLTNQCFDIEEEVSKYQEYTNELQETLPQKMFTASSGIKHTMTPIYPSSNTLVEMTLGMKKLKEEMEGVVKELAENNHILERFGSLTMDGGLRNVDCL
UHMK1, construct: Full length, rat, sequence (Q63285 whole entry, looked up): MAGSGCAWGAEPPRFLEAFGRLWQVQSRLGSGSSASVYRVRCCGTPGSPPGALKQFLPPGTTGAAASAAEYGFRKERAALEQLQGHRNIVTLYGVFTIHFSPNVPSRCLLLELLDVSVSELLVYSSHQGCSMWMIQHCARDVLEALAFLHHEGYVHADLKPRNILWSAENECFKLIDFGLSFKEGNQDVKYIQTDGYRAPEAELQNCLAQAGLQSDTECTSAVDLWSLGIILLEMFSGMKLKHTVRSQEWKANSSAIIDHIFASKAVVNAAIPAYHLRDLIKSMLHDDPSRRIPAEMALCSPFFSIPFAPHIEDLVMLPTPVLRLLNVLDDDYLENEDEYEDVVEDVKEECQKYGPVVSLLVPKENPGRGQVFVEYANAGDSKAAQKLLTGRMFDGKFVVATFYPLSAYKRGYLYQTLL

TBK1, construct: Full length, human (from UniProt Q9UHD2)
relative phosphorylation
Conditions | at +1 | at +2 | at +3 | at +4 | at -1 | at -2 | at -3 | at -4 | at -5
A fixed | 0.37 | 1.01 | 0.9 | 0.857 | 1.09 | 0.967 | 1.04 | 1.04 | 1.06
D fixed | 0.296 | 0.857 | 0.879 | 0.864 | 0.882 | 1.15 | 1.27 | 1.29 | 1.16
E fixed | 0.214 | 0.903 | 0.869 | 0.945 | 0.855 | 1.06 | 1.32 | 1.13 | 1.18
F fixed | 1.85 | 1.22 | 1.31 | 1.23 | 0.885 | 1.33 | 0.781 | 0.789 | 0.923
G fixed | 0.548 | 0.851 | 0.974 | 0.897 | 0.814 | 1.12 | 1.56 | 1.19 | 1.19
H fixed | 0.557 | 1.09 | 1.16 | 1.05 | 1.11 | 1.06 | 1.08 | 1.04 | 1.21
I fixed | 2.31 | 1.23 | 0.75 | 1.12 | 0.853 | 0.589 | 0.68 | 0.789 | 0.771
K fixed | 0.249 | 0.616 | 0.555 | 0.768 | 1.13 | 0.613 | 0.985 | 1.07 | 1.19
L fixed | 3.03 | 1.22 | 1.04 | 1.09 | 1.06 | 0.864 | 0.568 | 0.903 | 0.805
M fixed | 2.85 | 1.27 | 1.1 | 1.14 | 1.29 | 1.16 | 0.928 | 0.998 | 0.8
N fixed | 0.349 | 1.02 | 0.962 | 0.876 | 0.957 | 0.883 | 1.09 | 1.2 | 1.09
P fixed | 0.178 | 0.765 | 1.16 | 1.04 | 1.26 | 1.83 | 1.24 | 1.08 | 0.981
Q fixed | 0.333 | 1.06 | 0.884 | 0.921 | 1.05 | 0.928 | 1.24 | 1.03 | 1.03
R fixed | 0.255 | 0.858 | 0.602 | 0.743 | 1.05 | 0.666 | 1 | 0.997 | 1.12
V fixed | 0.957 | 1.3 | 0.974 | 0.889 | 0.834 | 0.658 | 0.7 | 0.721 | 0.784
W fixed | 1.41 | 0.804 | 1.33 | 1.36 | 0.75 | 0.748 | 0.711 | 0.877 | 0.857
Y fixed | 1.24 | 0.931 | 1.54 | 1.22 | 1.12 | 1.39 | 0.812 | 0.861 | 0.859
pThr fixed | 0.465 | 0.783 | 0.625 | 0.849 | 0.582 | 0.817 | 1.14 | 1.01 | 1.06
pTyr fixed | 0.494 | 0.785 | 0.848 | 0.779 | 1.07 | 1.46 | 1.32 | 1.03 | 1.11

UHMK1, construct: Full length, rat (from UniProt Q63285)
relative phosphorylation
Conditions | at +1 | at +2 | at +3 | at +4 | at -1 | at -2 | at -3 | at -4 | at -5
A fixed | 0.707 | 1.1 | 1.58 | 1.14 | 1.16 | 1.12 | 0.872 | 0.961 | 0.981
D fixed | 0.246 | 0.442 | 0.33 | 0.594 | 1.67 | 3.17 | 3.13 | 1.43 | 1.11
E fixed | 0.266 | 0.515 | 0.397 | 1.54 | 0.818 | 1.86 | 2.01 | 1.14 | 1.02
F fixed | 0.343 | 1.09 | 1.12 | 0.824 | 0.666 | 0.678 | 0.626 | 0.742 | 0.715
G fixed | 0.86 | 1.08 | 0.906 | 0.915 | 1.54 | 1.22 | 1.11 | 1.02 | 0.994
H fixed | 0.349 | 0.936 | 0.99 | 0.78 | 0.872 | 0.714 | 0.822 | 0.872 | 1.45
I fixed | 0.665 | 1.18 | 0.77 | 1.36 | 0.636 | 0.663 | 0.704 | 0.917 | 0.931
K fixed | 0.437 | 1.07 | 0.477 | 0.761 | 0.939 | 0.636 | 0.625 | 1.15 | 1.64
L fixed | 0.363 | 1.02 | 0.872 | 0.86 | 0.808 | 0.677 | 0.672 | 0.95 | 1.22
M fixed | 0.362 | 0.76 | 0.601 | 0.847 | 0.73 | 0.599 | 0.647 | 0.703 | 0.748
N fixed | 0.299 | 0.664 | 0.402 | 0.588 | 1.36 | 0.945 | 1.09 | 1.28 | 1.18
P fixed | 10.2 | 2.02 | 4.75 | 1.07 | 1.9 | 1.37 | 1.17 | 1.16 | 0.952
Q fixed | 0.321 | 0.729 | 0.447 | 1.46 | 0.957 | 0.693 | 0.801 | 0.769 | 0.669
R fixed | 0.388 | 0.958 | 0.829 | 0.681 | 0.81 | 0.592 | 0.674 | 0.677 | 0.749
V fixed | 0.475 | 1.37 | 0.887 | 1.89 | 0.763 | 0.786 | 0.69 | 0.734 | 0.758
W fixed | 0.362 | 0.831 | 0.732 | 0.792 | 0.681 | 0.631 | 0.665 | 1.79 | 1.13
Y fixed | 0.337 | 1.25 | 0.91 | 0.891 | 0.687 | 0.642 | 0.685 | 0.712 | 0.749
pThr fixed | 0.306 | 0.654 | 0.572 | 0.747 | 1.2 | 5.01 | 2.73 | 1.9 | 2.82
pTyr fixed | 0.357 | 0.536 | 0.505 | 1.06 | 0.702 | 2.41 | 2.11 | 1.36 | 0.883

WNK1, construct: aa171-529, human (from UniProt Q9H4A3)
relative phosphorylation
Conditions | at +1 | at +2 | at +3 | at +4 | at -1 | at -2 | at -3 | at -4 | at -5
A fixed | 0.732 | 1.03 | 0.811 | 0.927 | 1.25 | 1.57 | 0.952 | 1.02 | 0.944
D fixed | 0.238 | 1.07 | 0.679 | 0.746 | 0.328 | 0.241 | 0.314 | 0.487 | 0.493
E fixed | 0.257 | 0.75 | 0.619 | 0.759 | 0.445 | 0.263 | 0.371 | 0.536 | 0.53
F fixed | 1.18 | 0.759 | 1.52 | 1.24 | 0.802 | 0.764 | 0.799 | 0.86 | 1.12
G fixed | 0.84 | 0.934 | 0.828 | 0.839 | 1.1 | 2.18 | 0.926 | 0.88 | 0.867
H fixed | 0.762 | 0.794 | 1.17 | 0.888 | 0.887 | 1.31 | 0.979 | 1 | 0.932
I fixed | 1.17 | 1.24 | 0.89 | 1.13 | 0.75 | 0.748 | 0.85 | 0.951 | 0.955
K fixed | 1.22 | 1.19 | 1.43 | 1.5 | 2.19 | 1.44 | 2.48 | 2.01 | 1.82
L fixed | 1.34 | 0.984 | 0.958 | 1.02 | 0.891 | 0.641 | 0.951 | 1.02 | 1.22
M fixed | 1.82 | 0.899 | 0.954 | 0.952 | 1.07 | 0.597 | 0.855 | 0.952 | 0.974
N fixed | 0.895 | 0.665 | 0.783 | 0.719 | 0.719 | 0.714 | 0.606 | 0.872 | 0.712
P fixed | 0.288 | 0.457 | 0.582 | 0.936 | 0.586 | 1.25 | 1.01 | 0.763 | 0.819
Q fixed | 1.18 | 0.65 | 0.734 | 0.861 | 1.21 | 0.954 | 0.845 | 0.795 | 0.698
R fixed | 2.01 | 2.97 | 1.69 | 1.37 | 2.5 | 2.25 | 2.63 | 1.83 | 1.54
V fixed | 0.986 | 1.21 | 0.809 | 0.992 | 0.971 | 0.957 | 0.961 | 1.06 | 1.12
W fixed | 0.888 | 0.635 | 1.23 | 1.08 | 0.574 | 0.462 | 0.621 | 0.856 | 1.11
Y fixed | 1.18 | 0.759 | 1.31 | 1.03 | 0.735 | 0.669 | 0.858 | 1.1 | 1.15
pThr fixed | 0.58 | 0.863 | 0.707 | 0.803 | 0.61 | 0.852 | 0.854 | 0.882 | 0.702
pTyr fixed | 0.662 | 0.911 | 0.849 | 0.78 | 0.789 | 0.573 | 0.806 | 0.666 | 0.637

Source: the supplement of paper PMC9876800
